Source: patent publication US20210230570A1

target: Factor VIIIa (recombinant FVIII, Kogenate FS, activated with alpha-thrombin) (UniProt P00451); assay: functional KD-app: FVIIIa titrated (0-400 nM) on 2 pM FIXa, PC/PS vesicles, 500 nM FX, fluorogenic FXa substrate
Sequence (P00451 20-391, chain 1 of 3): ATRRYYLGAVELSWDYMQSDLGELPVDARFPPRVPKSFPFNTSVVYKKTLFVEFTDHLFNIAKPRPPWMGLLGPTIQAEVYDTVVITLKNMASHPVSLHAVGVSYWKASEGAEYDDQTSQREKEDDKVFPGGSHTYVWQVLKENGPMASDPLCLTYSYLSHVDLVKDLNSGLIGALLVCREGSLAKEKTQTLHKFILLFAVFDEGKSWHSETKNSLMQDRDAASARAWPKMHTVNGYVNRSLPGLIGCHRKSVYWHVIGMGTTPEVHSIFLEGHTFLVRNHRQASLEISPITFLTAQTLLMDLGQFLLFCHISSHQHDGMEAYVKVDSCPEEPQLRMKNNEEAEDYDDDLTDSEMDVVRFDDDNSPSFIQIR
Sequence (P00451 392-759, chain 2 of 3): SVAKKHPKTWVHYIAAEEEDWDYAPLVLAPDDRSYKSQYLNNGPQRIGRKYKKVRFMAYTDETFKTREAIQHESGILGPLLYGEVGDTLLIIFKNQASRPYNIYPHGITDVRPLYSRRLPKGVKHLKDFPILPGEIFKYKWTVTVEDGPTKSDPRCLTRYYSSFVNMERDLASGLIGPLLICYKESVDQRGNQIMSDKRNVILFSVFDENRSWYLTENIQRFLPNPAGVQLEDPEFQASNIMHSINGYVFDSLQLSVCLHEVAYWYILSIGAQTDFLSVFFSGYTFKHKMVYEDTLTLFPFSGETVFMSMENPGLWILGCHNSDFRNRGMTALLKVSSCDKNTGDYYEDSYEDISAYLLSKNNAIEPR
Sequence (P00451 1709-2351, chain 3 of 3): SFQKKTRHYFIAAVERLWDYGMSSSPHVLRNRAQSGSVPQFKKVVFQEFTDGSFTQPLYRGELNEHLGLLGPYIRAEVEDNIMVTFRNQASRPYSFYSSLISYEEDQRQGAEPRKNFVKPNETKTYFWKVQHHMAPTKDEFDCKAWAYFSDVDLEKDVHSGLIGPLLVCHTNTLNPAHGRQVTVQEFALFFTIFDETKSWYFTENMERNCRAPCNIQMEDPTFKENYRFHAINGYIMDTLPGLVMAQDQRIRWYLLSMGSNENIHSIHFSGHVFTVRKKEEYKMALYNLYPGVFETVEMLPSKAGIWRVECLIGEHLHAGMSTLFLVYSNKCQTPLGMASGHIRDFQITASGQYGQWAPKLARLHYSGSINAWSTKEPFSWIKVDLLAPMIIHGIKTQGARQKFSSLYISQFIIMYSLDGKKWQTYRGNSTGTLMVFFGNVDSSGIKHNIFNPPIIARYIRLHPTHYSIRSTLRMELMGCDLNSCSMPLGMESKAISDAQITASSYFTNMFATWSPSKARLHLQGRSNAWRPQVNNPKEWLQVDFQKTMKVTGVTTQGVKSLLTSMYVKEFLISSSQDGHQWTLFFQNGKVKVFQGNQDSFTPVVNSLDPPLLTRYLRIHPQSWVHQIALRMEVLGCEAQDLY

| Substance | Kd [nM] |
| --- | --- |
| FIXa-Y155F/K247N/N249S/R338E/E410N (from UniProt P00740 47-191; P00740 227-461) (enzyme) | 24.9 |
| FIXa-Y155F/R318Y/R338E/T343R (from UniProt P00740 47-191; P00740 227-461) (enzyme) | 8.4 |
| FIXa-Y155F/R318Y/T343R/E410N (from UniProt P00740 47-191; P00740 227-461) (enzyme) | 38 |
| FIXa-Y155F/K228N/K247N/N249S/R318Y/R338E/T343R/R403E/E410N (from UniProt P00740 47-191; P00740 227-461) (enzyme) | 37 |
| FIXa-R318Y/R338E/T343R/R403E/E410S (from UniProt P00740 47-191; P00740 227-461) (enzyme) | 23.2 |
| FIXa-Y155F/K247N/N249S/R318Y/R338E/T343R/R403E/E410N (from UniProt P00740 47-191; P00740 227-461) (enzyme) | 15.3 |
| FIXa-Y155F/R338E/T343R/R403E/E410N (from UniProt P00740 47-191; P00740 227-461) (enzyme) | 28.5 |
| FIXa-Y155F/R338E/T343R/R403E (from UniProt P00740 47-191; P00740 227-461) (enzyme) | 72.1 |
| FIXa-R338E/T343R/R403E/E410N (from UniProt P00740 47-191; P00740 227-461) (enzyme) | 29.4 |
| FIXa-Y155F/K247N/N249S/R338E/T343R (from UniProt P00740 47-191; P00740 227-461) (enzyme) | 15.4 |
| FIXa-Y155F/R338E/T343R/E410N (from UniProt P00740 47-191; P00740 227-461) (enzyme) | 8.5 |
| FIXa-K228N/K247N/N249S/R318Y/R338E/T343R/R403E/E410N (from UniProt P00740 47-191; P00740 227-461) (enzyme) | 29.1 |
| FIXa-K228N/K247N/N249S/R318Y/R338E/T343R/E410N (from UniProt P00740 47-191; P00740 227-461) (enzyme) | 7.8 |
| FIXa-R318Y/R338E/T343R (from UniProt P00740 47-191; P00740 227-461) (enzyme) | 9.8 |
| FIXa-R338E/T343R/E410N (from UniProt P00740 47-191; P00740 227-461) (enzyme) | 7.5 |
| FIXa-R318Y/T343R/R403E/E410N (from UniProt P00740 47-191; P00740 227-461) (enzyme) | 84.1 |
| FIXa-Y155F/R318Y/R338E/T343R/E410N (from UniProt P00740 47-191; P00740 227-461) (enzyme) | 7.4 |
| FIXa-K228N/R318Y/R338E/T343R/R403E/E410N (from UniProt P00740 47-191; P00740 227-461) (enzyme) | 17.5 |
| FIXa-Y155F/K247N/N249S/R318Y/R338E/T343R/E410N (from UniProt P00740 47-191; P00740 227-461) (enzyme) | 13.9 |
| FIXa-R338E/T343R/R403E (from UniProt P00740 47-191; P00740 227-461) (enzyme) | 55 |
| FIXa-R318Y/R338E/T343R/E410N (from UniProt P00740 47-191; P00740 227-461) (enzyme) | 6.1 |
| FIXa-K247N/N249S/R318Y/R338E/T343R (from UniProt P00740 47-191; P00740 227-461) (enzyme) | 14.7 |

target: plasma purified human AT-III (antithrombin III), in complex with low molecular weight heparin (human) (UniProt P01008); assay: K0.5: AT-III conc. for 50% inhibition of FIXa cleavage of Pefafluor FIXa; AT-III/LMWH, 1 uM LMWH, 1 min
Sequence (P01008 33-464, one chain of several): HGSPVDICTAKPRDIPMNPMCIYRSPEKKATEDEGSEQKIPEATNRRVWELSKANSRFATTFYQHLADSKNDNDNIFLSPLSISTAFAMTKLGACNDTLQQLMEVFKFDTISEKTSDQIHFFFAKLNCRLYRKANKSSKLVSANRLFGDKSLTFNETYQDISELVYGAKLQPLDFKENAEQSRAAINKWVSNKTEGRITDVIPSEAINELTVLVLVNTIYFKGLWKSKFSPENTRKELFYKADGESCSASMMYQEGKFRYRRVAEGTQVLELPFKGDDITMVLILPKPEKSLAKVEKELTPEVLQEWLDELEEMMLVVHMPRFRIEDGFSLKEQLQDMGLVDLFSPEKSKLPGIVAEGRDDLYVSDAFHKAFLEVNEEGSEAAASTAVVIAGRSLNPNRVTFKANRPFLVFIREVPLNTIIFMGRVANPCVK

| Substance | IC50 [nM] |
| --- | --- |
| Plasma Purified FIXa (from UniProt P00740 47-191; P00740 227-461) (enzyme) | 20.2 |

target: Factor VIIIa (recombinant FVIII, Kogenate FS, activated with alpha-thrombin) (UniProt P00451); assay: apparent KD (KD-app): FX activation rate (Spectrafluor FXa fluorescence) vs FVIIIa titration, PC/PS vesicles, Ca2+; indirect functional assay

| Substance | Kd [nM] |
| --- | --- |
| FIXa variant E410S (from UniProt P00740 47-191; P00740 227-461) (enzyme) | 99.6 |
| FIXa variant R318Y/R338E/R403E/E410N (from UniProt P00740 47-191; P00740 227-461) (enzyme) | 47 |
| Catalyst Biosciences WT FIXa (recombinant wild-type FIXa) (from UniProt P00740 47-191; P00740 227-461) (enzyme) | 95.5 |
| FIXa variant D104N/K106S/Y155F/R318Y/R338E/R403E/E410N (from UniProt P00740 47-191; P00740 227-461) (enzyme) | 61.6 |
| FIXa variant K400E/R403E (from UniProt P00740 47-191; P00740 227-461) (enzyme) | 298 |
| FIXa variant A204M (from UniProt P00740 47-191; P00740 227-461) (enzyme) | 60.6 |
| FIXa variant R403E (from UniProt P00740 47-191; P00740 227-461) (enzyme) | 654 |
| FIXa variant T148A (from UniProt P00740 47-191; P00740 227-461) (enzyme) | 79.7 |
| FIXa variant E410N (from UniProt P00740 47-191; P00740 227-461) (enzyme) | 74.2 |
| FIXa variant T241N/H243S (from UniProt P00740 47-191; P00740 227-461) (enzyme) | 75.5 |
| BeneFIX Coagulation FIX (T148A), activated (FIXa) (from UniProt P00740 47-191; P00740 227-461) (enzyme) | 90.2 |
| FIXa variant R318E (from UniProt P00740 47-191; P00740 227-461) (enzyme) | 67 |
| FIXa variant R338E/R403E/E410N (from UniProt P00740 47-191; P00740 227-461) (enzyme) | 54.9 |
| FIXa variant R318Y/R338E/R403E (from UniProt P00740 47-191; P00740 227-461) (enzyme) | 340 |
| FIXa variant R318Y/R338E/E410N (from UniProt P00740 47-191; P00740 227-461) (enzyme) | 7.7 |
| FIXa variant R312L (from UniProt P00740 47-191; P00740 227-461) (enzyme) | 68.9 |
| FIXa variant R312A (from UniProt P00740 47-191; P00740 227-461) (enzyme) | 52.9 |
| FIXa variant K400A (from UniProt P00740 47-191; P00740 227-461) (enzyme) | 98.9 |
| FIXa variant V202Y (from UniProt P00740 47-191; P00740 227-461) (enzyme) | 61.5 |

| Substance | Kd [nM] |
| --- | --- |
| FIXa variant R338E/E410N (from UniProt P00740 47-191; P00740 227-461) (enzyme) | 4.1 |
| FIXa variant R403E/E410N (from UniProt P00740 47-191; P00740 227-461) (enzyme) | 910 |
| FIXa variant H257E (from UniProt P00740 47-191; P00740 227-461) (enzyme) | 81.3 |
| FIXa variant R318Y (from UniProt P00740 47-191; P00740 227-461) (enzyme) | 192 |
| FIXa variant R312Q (from UniProt P00740 47-191; P00740 227-461) (enzyme) | 45.2 |
| FIXa variant D104N/K106S/I251S (from UniProt P00740 47-191; P00740 227-461) (enzyme) | 306 |
| FIXa variant R312Y (from UniProt P00740 47-191; P00740 227-461) (enzyme) | 85.2 |
| FIXa variant R338E (from UniProt P00740 47-191; P00740 227-461) (enzyme) | 43 |
| FIXa variant K400A/R403A (from UniProt P00740 47-191; P00740 227-461) (enzyme) | 130 |
| FIXa variant A262S (from UniProt P00740 47-191; P00740 227-461) (enzyme) | 94.1 |
| FIXa variant R338E/R403E (from UniProt P00740 47-191; P00740 227-461) (enzyme) | 183 |
| FIXa variant K316N (from UniProt P00740 47-191; P00740 227-461) (enzyme) | 66.4 |
| FIXa variant K293A (from UniProt P00740 47-191; P00740 227-461) (enzyme) | 86.6 |
| FIXa variant D104N/K106S/R318Y/R338E/E410N (from UniProt P00740 47-191; P00740 227-461) (enzyme) | 12.4 |
| FIXa variant E239N (from UniProt P00740 47-191; P00740 227-461) (enzyme) | 77.3 |
| FIXa variant N346D (from UniProt P00740 47-191; P00740 227-461) (enzyme) | 126 |
| FIXa variant S319N/L321S (from UniProt P00740 47-191; P00740 227-461) (enzyme) | 52.4 |
| FIXa variant D203Y (from UniProt P00740 47-191; P00740 227-461) (enzyme) | 77.4 |
